According to FireProtDB (doi:10.1093/protein/11.3.213):
“And” between values parts separate entries of the source, which are not always exact repeats. Identical values can stand only once.

B1: Endolysin, P03706 (parent)
chain: MVEINNQRKAFLDMLAWSEGTDNGRQKTRNHGYDVIVGGELFTDYSDHPRKLVTLNPKLKSTGAGRYQLLSRWWDAYRKQLGLKDFSPKSQDAVALQQIKERGALPMIDRGDIRQAIDRCSNIWASLPGAGYGQFEHKADSLIAKFKEAGGTVREIDV

Variants of: B1
Details: Escherichia phage lambda; pH 4; Thermal; Fluorescence; phosphate 0.1 M; reversible: yes; structure 1AM7; whole UniProt chain shown

Row | Variant | Tm | unfolding enthalpy (calorimetric) | unfolding enthalpy (van 't Hoff)
1 | MVEINNQRKAFLDMLAWSEGTDNGRQKTRNNGYDVIVGGELFTDYSDHPRKLVTLNPKLKSTGAGRYQLLSRWWDAYRKQLGLKDFSPKSQDAVALQQIKERGALPMIDRGDIRQAIDRCSNIWASLPGAGYGQFENKADSLIAKFKEAGGTVREIDV | 24.5 °C and 26 °C | 40.3 kcal/mol and 43.3 kcal/mol | 29 kcal/mol and 35.4 kcal/mol

Same assay, conditions: Escherichia phage lambda; pH 4.5; Thermal; Fluorescence; phosphate 0.1 M; reversible: yes; structure 1AM7; whole UniProt chain shown

Row | Variant | Tm [°C] | unfolding enthalpy (calorimetric) [kcal/mol] | unfolding enthalpy (van 't Hoff) [kcal/mol]
2 | MVEINNQRKAFLDMLAWSEGTDNGRQKTRNNGYDVIVGGELFTDYSDHPRKLVTLNPKLKSTGAGRYQLLSRWWDAYRKQLGLKDFSPKSQDAVALQQIKERGALPMIDRGDIRQAIDRCSNIWASLPGAGYGQFENKADSLIAKFKEAGGTVREIDV | 39.3 | 69.9 | 71

Same assay, conditions: Escherichia phage lambda; pH 5.5; Thermal; Fluorescence; phosphate 0.1 M; reversible: yes; structure 1AM7; whole UniProt chain shown

Row | Variant | Tm [°C] | unfolding enthalpy (calorimetric) [kcal/mol] | unfolding enthalpy (van 't Hoff) [kcal/mol]
3 | MVEINNQRKAFLDMLAWSEGTDNGRQKTRNNGYDVIVGGELFTDYSDHPRKLVTLNPKLKSTGAGRYQLLSRWWDAYRKQLGLKDFSPKSQDAVALQQIKERGALPMIDRGDIRQAIDRCSNIWASLPGAGYGQFENKADSLIAKFKEAGGTVREIDV | 51.1 | 93.5 | 107

Same assay, conditions: Escherichia phage lambda; pH 6; Thermal; Fluorescence; phosphate 0.1 M; reversible: yes; structure 1AM7; whole UniProt chain shown

Row | Variant | Tm [°C] | unfolding enthalpy (calorimetric) [kcal/mol] | unfolding enthalpy (van 't Hoff) [kcal/mol]
4 | MVEINNQRKAFLDMLAWSEGTDNGRQKTRNNGYDVIVGGELFTDYSDHPRKLVTLNPKLKSTGAGRYQLLSRWWDAYRKQLGLKDFSPKSQDAVALQQIKERGALPMIDRGDIRQAIDRCSNIWASLPGAGYGQFENKADSLIAKFKEAGGTVREIDV | 52.7 | 96.7 | 93

Same assay, conditions: Escherichia phage lambda; pH 6.5; Thermal; Fluorescence; phosphate 0.1 M; reversible: yes; structure 1AM7; whole UniProt chain shown

Row | Variant | Tm [°C] | unfolding enthalpy (calorimetric) [kcal/mol] | unfolding enthalpy (van 't Hoff) [kcal/mol]
5 | MVEINNQRKAFLDMLAWSEGTDNGRQKTRNNGYDVIVGGELFTDYSDHPRKLVTLNPKLKSTGAGRYQLLSRWWDAYRKQLGLKDFSPKSQDAVALQQIKERGALPMIDRGDIRQAIDRCSNIWASLPGAGYGQFENKADSLIAKFKEAGGTVREIDV | 53.6 | 98.5 | 111

Same assay, conditions: Escherichia phage lambda; pH 6.57; Thermal; Fluorescence; phosphate 0.1 M; reversible: yes; structure 1AM7; whole UniProt chain shown

Row | Variant | Tm [°C] | unfolding enthalpy (calorimetric) [kcal/mol] | unfolding enthalpy (van 't Hoff) [kcal/mol]
6 | MVEINNQRKAFLDMLAWSEGTDNGRQKTRNNGYDVIVGGELFTDYSDHPRKLVTLNPKLKSTGAGRYQLLSRWWDAYRKQLGLKDFSPKSQDAVALQQIKERGALPMIDRGDIRQAIDRCSNIWASLPGAGYGQFENKADSLIAKFKEAGGTVREIDV | 50.8 | 92.9 | 100

Same assay, conditions: Escherichia phage lambda; pH 7.07; Thermal; Fluorescence; phosphate 0.1 M; reversible: yes; structure 1AM7; whole UniProt chain shown

Row | Variant | Tm [°C] | unfolding enthalpy (calorimetric) [kcal/mol] | unfolding enthalpy (van 't Hoff) [kcal/mol]
7 | MVEINNQRKAFLDMLAWSEGTDNGRQKTRNNGYDVIVGGELFTDYSDHPRKLVTLNPKLKSTGAGRYQLLSRWWDAYRKQLGLKDFSPKSQDAVALQQIKERGALPMIDRGDIRQAIDRCSNIWASLPGAGYGQFENKADSLIAKFKEAGGTVREIDV | 51.1 | 93.5 | 105

Same assay, conditions: Escherichia phage lambda; pH 7.57; Thermal; Fluorescence; phosphate 0.1 M; reversible: yes; structure 1AM7; whole UniProt chain shown

Row | Variant | Tm [°C] | unfolding enthalpy (calorimetric) [kcal/mol] | unfolding enthalpy (van 't Hoff) [kcal/mol]
8 | MVEINNQRKAFLDMLAWSEGTDNGRQKTRNNGYDVIVGGELFTDYSDHPRKLVTLNPKLKSTGAGRYQLLSRWWDAYRKQLGLKDFSPKSQDAVALQQIKERGALPMIDRGDIRQAIDRCSNIWASLPGAGYGQFENKADSLIAKFKEAGGTVREIDV | 51 | 93.3 | 101

Same assay, conditions: Escherichia phage lambda; pH 8.07; Thermal; Fluorescence; phosphate 0.1 M; reversible: yes; structure 1AM7; whole UniProt chain shown

Row | Variant | Tm [°C] | unfolding enthalpy (calorimetric) [kcal/mol] | unfolding enthalpy (van 't Hoff) [kcal/mol]
9 | MVEINNQRKAFLDMLAWSEGTDNGRQKTRNNGYDVIVGGELFTDYSDHPRKLVTLNPKLKSTGAGRYQLLSRWWDAYRKQLGLKDFSPKSQDAVALQQIKERGALPMIDRGDIRQAIDRCSNIWASLPGAGYGQFENKADSLIAKFKEAGGTVREIDV | 50.1 | 91.5 | 91
